Test results published in paper PMC4095729.

B1: Humanized 3D6 version 1 (antibody, V domains shown)
VH: EVQLLESGGGLVQPGGSLRLSCAASGFTFSNYGMSWVRQAPGKGLEWVASIRSGGGRTYYSDNVKGRFTISRDNAKNSLYLQMNSLRAEDTALYYCVRYDHYSGSSDYWGQGTLVTVSS
VL: YVVMTQSPLSLPVTPGEPASISCKSSQSLLDSDGKTYLNWLLQKPGQSPQRLIYLVSKLDSGVPDRFSGSGSGTDFTLKISRVEAEDVGVYYCWQGTHFPRTFGQGTKVEIK
B2: Bapineuzumab (humanized 3D6, version 2) (antibody, V domains shown)
VH: EVQLLESGGGLVQPGGSLRLSCAASGFTFSNYGMSWVRQAPGKGLEWVASIRSGGGRTYYSDNVKGRFTISRDNSKNTLYLQMNSLRAEDTAVYYCVRYDHYSGSSDYWGQGTLVTVSS
VL: DVVMTQSPLSLPVTPGEPASISCKSSQSLLDSDGKTYLNWLLQKPGQSPQRLIYLVSKLDSGVPDRFSGSGSGTDFTLKISRVEAEDVGVYYCWQGTHFPRTFGQGTKVEIK

Molecular target: biotinylated DAE10 peptide (Aβ1-10 conjugated to biotin at the carboxy-terminus)
Assay: SPR; BIAcore; biotinylated DAE10 peptide (Aβ1-10) immobilised on streptavidin coated chips at low density (4 to 7 RU); whole antibodies injected in triplicate at 100 nM, 30 μl/minute; apparent rate constants, bivalent model, KD corrected for active concentration of antibody

| Binder | Kd | koff | kon |
| --- | --- | --- | --- |
| B1 | 2.1 nM | 0.000399 s⁻¹ | 189000 M⁻¹ s⁻¹ |
| B2 | 2.8 nM | 0.000423 s⁻¹ | 150000 M⁻¹ s⁻¹ |
